B1: 2K2A (parent)
chain: ELREAFRLYDKEGNGYISTDVMREILAELDETLSSEDLDAMIDEIDADGSGTVDFEEFMGVMT

Variants of: B1
Test: folding stability dG (cDNA display proteolysis); higher = more stable
Details: PBS, room temperature

Folding stability dG [kcal/mol] of substitutions, site by site:
I25: A 0.872, R 0, Q -0.758, F 1.53, Y 0.879, C 0.786, V 1.31, T -0.61, M 1.31, K 0.177, H -0.033, L 1.82, W 0.943
E28: W 1.89, D 1.78, K 2.52, R 2.59, T 2.03, M 2.28, I 1.85, L 2.25, C 2.33, G 2.28, P -0.155, F 1.77, V 1.76, Q 2.24, H 2.2, N 2.22, Y 1.83, S 2.34, A 2.46
E24: W 2.31, V 2.23, S 2.3, T 2.22, R 2.58, Y 2.2, Q 2.48
E31: T 2.12, Y 2.01, F 1.89, A 2.24, G 2.17, D 1.97, I 1.93, W 1.98, C 1.92, M 2.02, L 2, R 2.41, H 2.26, S 2.28, N 2.15, K 2.34, Q 2.2, V 2.01, P 2.61
S34: A 1.26, E 1.05, C 1.2, D 1.3, F 0.67, G 1.26
A27: N 1.24, E 1.12, H 1.94, M 2.03, C 1.47, D 0.222, R 2.25, F 1.73, T 1.6, G 1.47, L 2.06, I 1.87, W 1.73, Y 1.75, V 1.59, S 1.87, Q 1.93, K 2.21, P -0.602
L29: N 1.34, E 0.559, Q 1.49, S 1.32, T 1.15, H 1.73, W 2.15, D 0.372, Y 1.92, K 1.52, V 1.28, I 1.64, R 2.12, C 2.18, F 1.91, G 0.955, A 1.52, M 2.15
L26: R -0.879, A 0.083, V 0.555, M 1.27, I 1.45, C 0.479, F 1.04, W 0.837, Y 0.295
D30: S 1.4, F 2.19, T 1.3, V 1.55, I 1.81, R 1.72, H 2.08, C 1.97, G 1.13, E 0.964, W 2.22, Q 1.38, A 1.28, Y 2.36, M 1.95, P 0.553, K 1.45, L 1.93, N 2.1
T32: F 1.62, W 1.62, K 1.79, H 1.8, G 1.67, R 1.74, V 0.877, Y 1.54, P 0.441, Q 1.57, I 0.878, A 1.5, D 1.42, M 1.52, C 1.73, S 1.99, L 1.46, N 1.86, E 1.48
L33: G -0.126, W 1.83, A 1.02, S 0.411, I 1.36, Y 1.43, M 1.41, H 0.717, C 1.07, E -0.382, K 0.956, T 0.695, P -0.18, R 1.36, D -0.084, Q 0.501, V 0.861, N 0.113, F 1.34

Reference: the MegaScale stability set (Tsuboyama et al. 2023)
